{"source": "ChEMBL document CHEMBL1137310", "about": "“Stereoselective chemoenzymatic synthesis of the four stereoisomers of l-2-(2-carboxycyclobutyl)glycine and pharmacological characterization at human excitatory amino acid transporter subtypes 1, 2, and 3” (J Med Chem, 2006)", "type_in_all_cases": "functional, cell-based", "key": {"[1]": {"substrate": "N[C@@H](CCC(=O)O)C(=O)O", "test": "(§1) Substrate activity at human EAAT1 expressed in HEK293 cells by FLIPR membrane potential assay"}, "[2]": {"substrate": "N[C@H](C(=O)O)[C@@H]1CC[C@H]1C(=O)O", "test": "as §1"}, "[3]": {"substrate": "N[C@H](C(=O)O)[C@H]1CC[C@@H]1C(=O)O", "test": "as §1"}, "[4]": {"substrate": "N[C@@H](CCC(=O)O)C(=O)O", "test": "(§2) Substrate activity at human EAAT3 expressed in HEK293 cells by FLIPR membrane potential assay"}, "[5]": {"substrate": "N[C@H](C(=O)O)[C@H]1CC[C@@H]1C(=O)O", "test": "as §2"}}, "data": [{"protein": "Excitatory amino acid transporter 1 (Homo sapiens), P43003 (protein) MTKSNGEEPKMGGRMERFQQGVRKRTLLAKKKVQNITKEDVKSYLFRNAFVLLTVTAVIVGTILGFTLRPYRMSYREVKYFSFPGELLMRMLQMLVLPLIISSLVTGMAALDSKASGKMGMRAVVYYMTTTIIAVVIGIIIVIIIHPGKGTKENMHREGKIVRVTAADAFLDLIRNMFPPNLVEACFKQFKTNYEKRSFKVPIQANETLVGAVINNVSEAMETLTRITEELVPVPGSVNGVNALGLVVFSMCFGFVIGNMKEQGQALREFFDSLNEAIMRLVAVIMWYAPVGILFLIAGKIVEMEDMGVIGGQLAMYTVTVIVGLLIHAVIVLPLLYFLVTRKNPWVFIGGLLQALITALGTSSSSATLPITFKCLEENNGVDKRVTRFVLPVGATINMDGTALYEALAAIFIAQVNNFELNFGQIITISITATAASIGAAGIPQAGLVTMVIVLTSVGLPTDDITLIIAVDWFLDRLRTTTNVLGDSLGAGIVEHLSRHELKNRDVEMGNSVIEENEMKKPYQLIAQDNETEKPIDSETKM", "values": [{"measurement": "Km", "setting": "[1]", "result": 7.9, "unit": "µM"}, {"measurement": "Km", "setting": "[2]", "result": 96, "unit": "µM"}, {"measurement": "Km", "setting": "[3]", "result": 300, "unit": "µM"}]}, {"protein": "Excitatory amino acid transporter 3 (Homo sapiens), P43005 (protein) MGKPARKGCEWKRFLKNNWVLLSTVAAVVLGITTGVLVREHSNLSTLEKFYFAFPGEILMRMLKLIILPLIISSMITGVAALDSNVSGKIGLRAVVYYFCTTLIAVILGIVLVVSIKPGVTQKVGEIARTGSTPEVSTVDAMLDLIRNMFPENLVQACFQQYKTKREEVKPPSDPEMNMTEESFTAVMTTAISKNKTKEYKIVGMYSDGINVLGLIVFCLVFGLVIGKMGEKGQILVDFFNALSDATMKIVQIIMCYMPLGILFLIAGKIIEVEDWEIFRKLGLYMATVLTGLAIHSIVILPLIYFIVVRKNPFRFAMGMAQALLTALMISSSSATLPVTFRCAEENNQVDKRITRFVLPVGATINMDGTALYEAVAAVFIAQLNDLDLGIGQIITISITATSASIGAAGVPQAGLVTMVIVLSAVGLPAEDVTLIIAVDWLLDRFRTMVNVLGDAFGTGIVEKLSKKELEQMDVSSEVNIVNPFALESTILDNEDSDTKKSYVNGGFAVDKSDTISFTQTSQF", "values": [{"measurement": "Km", "setting": "[4]", "result": 9.9, "unit": "µM"}, {"measurement": "Km", "setting": "[5]", "result": 300, "unit": "µM"}]}]}
